# Values quoted from earlier work as cited in paper PMC2917178.
# Molecular target: Lys66 (UniProt position 148, FTKKMKENAKK)
# Conditions: native (folded) state
substance,measurement,value
Staphylococcal nuclease V66K variant (Staphylococcus aureus; V66K),pKa,6.4
